{"source": "paper PMC7148328"}
{"target": "T1, His-Dbv6 (Nonomuraea gerenzanensis) (UniProt Q7WZ85)", "T1 sequence": "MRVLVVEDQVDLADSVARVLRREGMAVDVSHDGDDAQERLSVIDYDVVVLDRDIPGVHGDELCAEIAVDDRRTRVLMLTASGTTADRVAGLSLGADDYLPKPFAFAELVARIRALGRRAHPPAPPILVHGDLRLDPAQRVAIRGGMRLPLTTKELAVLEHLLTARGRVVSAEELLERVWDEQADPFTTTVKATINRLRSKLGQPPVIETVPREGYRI", "assay": "EMSA", "conditions": "12.5 mM Tris-HCl pH 7.5, 10% glycerol, 62.5 mM KCl, 0.75 mM DTT, 5 mM MgCl2, 20 uL, 4 C; 2.8-14 ug Dbv6 (legend: 0.5-2 mM), 100 ng DNA (legend: …)"}
{"sequence": "CATTCGTGTCGCCGTCTCGATCGGGGGCTGTCAGTCTGACACCATAGCTCGCGTCCGGTCGATCCTCGAGTTGCCGTCGGGGACGGGCGGGACGTGCCAGCCGTGGAAGCGCAGTGCCTCGGTGAGCCGGCCGGTGTCCTCCGGGCGCACGGAGACCTCGACCA (double strand) [updbv6]", "binding": "no binding"}
{"sequence": "GCAGGTCGGAAGGGACATCTGTTCGGTGGGTGCCGGGCGCTCCATGGCAACTCCCGCGTCATCGAGGTGCTGCGCAGCCCTCGAAGGTCGCACCCGCGGACGAGAGCCTGCTTGATCGCAAGCGTGCTCAACGGACTCGATGTCTACAAGCCGGTCCAGGTGAACGCTTGGTCAC (double strand) [updbv24]", "binding": "binds"}
{"sequence": "CCTTCAGCAAACCTCCGAACGGCGACACTATGGCCATGCGGGACTCCTCTCACACGCGCACGCAAGTCAGCGACCTCAATCGTGCTGAGCGGAGCCGATGTCCACGAGTGGGTCCAACTGAACAGTTCGCGCGCTTGGACGCGTTCACCGGTGGTGGTGACCAAGCGTTCACCTGGAC (double strand) [updbv23]", "binding": "binds"}
{"sequence": "GCATCGGTCTTATCCGAAACTAGGGGGGTGGATGTCCGGGATAGGGGGTGGTTCGACCTGCACAGCCTCCTTTAACCTTCCGGAGGAAGGCCTAACCGAAAGTCGGAGTGATCGGAATGCTAACGGGAAGCGTTCTGCAATTCGATGAGGTAGACGGCTACGGATTCGCGGCGACAGCGTCCAATTCTTTGCCGCGTGGAGTTGCCGAAGAAAAGAGGATGCGACG (double strand) [updbv4]", "binding": "binds"}
{"sequence": "TGAAGGCGACGATCAACCGGCTGCGCTCGAAGCTCGGCCAGCCGCCGGTGATCGAAACCGTCCCGCGCGAGGGATATCGCATCTGATCCGCGCGGTCACAGAGCGGTCACACGTTCTCTGACCCTCGTGTCACCTTCTGCTCCGTAGAACTGGTGTCAGATCACCAGACTGGAGGAGAGGGATGAGGA (double strand) [updbv7]", "binding": "binds"}
{"sequence": "GCAGGAATGGGAAAGGATCTTGCGCGGAGTGCCGCCGCATTGGGGCACCGTTGTCGCGAGATGCGCCAGGGATCATGCCCAGATCTGGGCAGCGTTCGCGGATCGCCTGGAGGGGCGGGCGACCGATCTGGCCGCTGGATGAGCACGAGTGGATGAGCCGGGCGGCCGTATGTAGAGCGACGGGACCAGGACCAGATCAGGCACACGGCAAACCAAGTCGACGAACCGCTTGGGGGACGAGCAAGAGTGCTGTTCGGGCGAGATCGTGAACTGAAGAGTCTGACGAGGTTGCTCGATTC (double strand) [updbv3]", "binding": "binds"}
